Results reported in the nanobody polyreactivity screen of Harvey et al. (2022).

Assay: yeast display, Sf9 membrane polyspecificity reagent, FACS + sequencing; frameworks hold sequencing errors
How it was run: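 After 36–48 hours of galactose induction, yeast (Saccharomyces cerevisiae BJ5465) displaying a synthetic nanobody library were stained at 4 °C for 1 hour with 10% biotinylated, detergent-solubilized Sf9 membrane reagent. Streptavidin microbeads enriched the stained cells before FACS sorting into low and high (top ~1%) gates on anti-HA and streptavidin fluorescence. Each clone's polyreactivity label reflects its gate of origin.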

Sequence	polyreactivity (PSR sort gate)
QVQLQESGGGLVQAGGSLRLSCAASGSISSRDAMGWYRQAPGKEREFVATIASGTTTYYADSVKGSFTISRDNAENTVYLQTNSLKPEDTAVYYCAAPTIQIYPFYYWGQGTQVTVSC	high polyreactivity
QVQLQESGGGLVQAGGSLRLSCAASGSITRYYDMGWYRQAPGKEREFVAGISGGAITYYADSVKGRFTISRDNAKNTVYLQMNSLKPEDTAVYYCAADTGVYQYHSYWGQGTQVTVSS	low polyreactivity
QVQLQESGGGLVQAGGSLRLSCAASGSIYDGFNMGWYRQAPGKEREFVAAISYGASTYYADSVKGRFTVSRDNAKNSVYLQMNSLKPEDTAVYYCAVYDELYHVLVYWGRGTQVTVSS	low polyreactivity
QVQLQESGGGLVQAGGSLRLSCAASGSNFKVVEMGLYRQAPAKDREFVATIGEGGNTYYADSVKGRFTISRDNAKNTVYLQMNSLKPEDTAVYFYAVVLGTSYRYTYWGQGTQVTVSS	low polyreactivity
QVQLQESGGGLVQAGGSLRLSCAASGTIFRISDMGSYRQAPGKELEFVAAITYGANTYYADSGKGRFTISRDNAKNTVYLQMNSLKPEDTAVYYCAVPPVKETILDYWGQGTQVTVSS	low polyreactivity
QVQLQESGGGLVQAGGSLRLSCAASGTISPLPAMGWYRQAPGKERDFVAGIDTGAITNYADSVKGRFTISRDNAKHTVYLQMNSLKPEETAVYYCADFPAAYDYYERYYTYWGQGTQVTVSS	low polyreactivity
QVQLQESGGGLVQAGGSLRLSCAASGTISPLPAMGWYRQAPGKEREFVAGIDTGAITNYADSVKGRFTISRDNGKNTVYLQMNSLNPEDTAVYYCAVFRGAYDYYEGYYTYWGQGTQVTVSS	low polyreactivity
QVQLQESGGGLVQAGGSLRLSCAASGVIFARNYMGWYRQAPGKERELVAGIGVGASTNYADSVKGRFTISRDNAKNTVYLQMNRLEPEDTAVYYCAVVDTVLGYHYYWGQGTQVTVSN	low polyreactivity
QVQLQESGGGLVQAGGSLRLSCAASGYIFPRIDMGWYRQAPGKEREFDAGISYDAITNYADSVKGRFTISLDNAKNTVYLQMNSLKPEDTAVYYCAVSYYGTPLFTYWGQGTQVTVSS	high polyreactivity
QVQLQESGGGLVQAGGSLRLSCAASGYISLAQTIGWFRQAPGKEREFVASIALGSSTYYTDSVKGSFTISRDNAKTTVYLQMNSLKPDDTAVYYCAARVGASYAHDYWGQGTQVTVSS	low polyreactivity
QVQLQESGGGLVQAGGSLRLSCAASGYISLAQTIGWYRQAPGKEREFVASIALGSRTYYTDSVKGSFTISRDNAKTTVYLQMNSLKAEDTAVYYCAARVGASYAHDYWGQGTQVTVSS	low polyreactivity
QVQLQESGGGLVQAGGSLRLSCAASGYISLAQTIGWYRQAPGKEREFVASIALGSSTYYTDSVKGSFTISRDNANTPVYLQMNSLKPEDTAVYYCAARVGASYAHDYWGQGTQVTVSC	low polyreactivity
QVQLQESGGGLVQAGGSLRLSCAASGYISQSSVMGWYRQASGKEREFVASISYGATTYYADSVKGRFTISRDNAKNTVYLQTNSPKPEDTAVYYCAVWVKRGFSHRYWGQGTQVTVSS	high polyreactivity
QVQLQESGGGLVQAGGSLRLSCAASGYISYFVGMAWYRQAPGKEREFVASIADGSNTYYADSVKGRFTISRDNAKNTVYLQRNSLKPEDTAVFYCAVEDSWTYRFDYWGQGTLVTVSS	high polyreactivity
QVQLQESGGGLVQAGGSLRLSCAASSNHSTLDVMGWYRQAPGKEREIVASIGSGGITNYADSVKGRFTISRDNAKNTVYLQMNSLKPEDTAVYYFAVLNQAYTDLIYWGQGTQVTVSS	high polyreactivity
QVQLQESGGGLVQAGGSLRLSCAATGTIFTDRFMGWYLQAPGKERELVACISPGTSTNYADSVKGRFTISRDNAKNTVYLKINSLKPEDTAVYYCAADWSTGNNLPYWGQGTQVTVSS	high polyreactivity
QVQLQESGGGLVQAGGSLRLSCAATGTIFTDRFMGWYRQAPGKERELVAGISPGTSTNYADSVKGRFTISRDNAKNTVYLQMNSLKPEDTAVYYCAADWSTGNTLPYWGQGTQVTVSS	high polyreactivity
QVQLQESGGGLVQAGGSLRLSCASSGSIYDDTYMGWYRQAPGKERELVATIDSGSTTNYADSVKRRITISRDNAKNTVYLQMNSLKPEDTAVYYCAAADSHIDYFDYWGQGTQVTVSS	low polyreactivity
QVQLQESGGGLVQAGGSLRLTCAASGYISYLQSMGLYRQAPVKERELVAGITLGTTTYNADSVKGRFTISPDNVQNTVYLQMNSLKPEYTAVYYCAVAVGHYPEFWYWGQGTQVTMSS	high polyreactivity
QVQLQESGGGLVQAGGSLRMSFAASGNIFDADIMGWYRPAPGKEPELVASITDGRRTNYADSVKGRYTIRRDSEKNTVYLQMNSLKPEDTAVYYCAAIAYPVVPTFVDFDSDYFHWGQGTHVTVSS	high polyreactivity
QVQLQESGGGLVQAGGSLRPRCAAGGTIFVSVNRGWYRHAPGEEREFVASITQGATTNYADSLIGRFTISRDNAKNTVYLQMNCQKPEDTAVYYCAVHESGGITFTYWGQGTQVTVSS	high polyreactivity
QVQLQESGGGLVQAGGSLRPSCAASGSISDGVPMGCYRQAPGEERELVATTVLGATTNYADSVKGRFTISRGNAKNTVYLQMNSLKPEETAVYYCAAPLRYDKGFSYWGQGTQVTVSS	low polyreactivity

Sequence	polyreactivity (PSR sort gate)
QVQLQESGGGLVQAGGSLSLRCSASRNITRSSDLGWYHQAPGKEREFVASITSGGTTYYADSVKGRFTISRDNAKNTVYLEMNSLKPEDTAVYYCAVGDQADAEFGYWGQGTQVTVSS	low polyreactivity
QVQLQESGGGLVQAGGSMRLSCAASGYFSNYYSMGLYRQAPGKERELVAGIGTGTSTYYADSVKGRFTISRDNAKNTVYQQMNSLKPEDTAVYYCAAPLDTSSRIFDYWGQGTQVTVSS	low polyreactivity
QVQLQESGGGLVQAGGSMRLSCAASGYNTIEVTRAGFSRRRAKNANLLPLLITVVLPIKRIAQNTISRDNAKNTVYLQMNSLKPEDTAVYNCAANTIGTDLYEYWGQGTQATVSS	low polyreactivity
QVQLQESGGGLVQAGGSMRLSCAPRGSIYELRPMGWNRQAPGKESELVAGISTGGSTNYADCVIGRFTISRDNAKYSVYLQMNSLKPEDSAVYYCAAASYGEGTYDYWGQGTQVTVRS	high polyreactivity
QVQLQESGGGLVQAGGSPRLSCAASDNIFPDSVMCWYRQAPGNERELVATIGFGATTNYADSVKGRFTISRDNAKNTVYLQMNSLKTEYTAVYYCAADPLNFDYFCYWGQGTQVTVSS	low polyreactivity
QVQLQESGGGLVQAGGSQRLSCAASGYIFYFQYMGWYRKAPGKEREFVAAISDGANTNYADSVKGRFTISRDNAKNTEYLQLNSLKPEDTAVYYCAVYADENYYYIYWGQGTQVNVSS	low polyreactivity
QVQLQESGGGLVQAGGSQRLTCAASVYIFYFQYMGWYRQAPGKEREFVAAMSDGANTNYADSVKGRFTISRDNAKNTESLQMNSLKPEDTAGYYCAVYADENYYYIYGGQGTQVTVSS	low polyreactivity
QVQLQESGGGLVQAGGVLRLSCAASGTISGPHVMGWYRQAPGKEREFVAAINDGANTYYADNVKGRFTISRDNAKNTVYLQMNILKPEDTAVYYCAAVFYGDIGHEYWGQGTQVTVSC	low polyreactivity
QVQLQESGGGLVQAGRSQRLSCAASGYIFYFQYMGWYRQAPGKEREFVAAISDGANTNYADSVKGRFTISRDNAKNSEYLQMNSLKPEDTAVYYCAVYADENYYYIYWGQGTQVTVSS	low polyreactivity
QVQLQESGGGLVQAGVSLRLSCAASGTIFTARFMAWYRQAPGKERELVATITDGGNTNHADSVKGRFSISRDNAKNTVSLQMNSLKPEYAAVYYCAAGEVDNDTLLFWGQGSQVTVSS	low polyreactivity
QVQLQESGGGLVQARGSLRLICAASGNISVTGFMGWYRQAPCKERELVASIGIGGTTYYADSVKGRFSISRDNAKNTVYLQMNSLKPEDTAVYYCAARYLYYAYSYWGQGTQVTVIS	low polyreactivity
QVQLQESGGGLVQARGSLRLSSAASGYISYLDFMGWYGQAPGKERELVAGITTGATTNYADSVKGRFTISRDNAKNIVYQQINSLKQEDTAVYYCARGTEVKSGISYRFYYWGQGTQVTVSS	low polyreactivity
QVQLQESGGGLVQASGSLRLSCAASGNIFPDYVMGWYRLAPGKEREFVANITGGSTTNYADSVKGRFTIIRDNAKNTVYLQMNSLKAEDTAVYYCAVNFGTVVLYLYWGQGTQVTVSS	high polyreactivity
QVQLQESGGGLVQSGGSLRLSCAASGYISSWYPMGWYRHAPGKEREFVATIAPGATTYYADSVKGRFTISRDYAKNTVYLQMNSLKPEDTAVYYCAAGPENNDFYSYWGQGTQVTVSS	low polyreactivity
QVQLQESGGGLVQVGGSLRLTCAASGTIFIYGFLGWNRQAPGKERELVASINLGGITNYADSVKGRFTISRDNAKNTVYLQMISLKPEDTAVYYCAAYVVTGQNYGYWGQGTQVTVSS	low polyreactivity
QVQLQESGGGMVQAGGSLRLSCAASGYISWADYMGWYRQAPGKERELVAGIGYGSTTYYADSVKGRFTISRDNAKNTAYLQMNSLKPEDTAVYYCAVGWYRVTAYKYWGQGTQVTVSS	low polyreactivity
QVQLQESGGGMVQAGGSQRLSCAASGYISWADYMGWYRKATGKERELVAGIGYGSTTYYADSVKGLFTISRDNANNTAYLQMNSLKPEDTAVYYCAVGWYRDTAYKYWGQGTQVTVSS	low polyreactivity
QVQLQESGGGPVLAGGSLRLSCAASGTIFVRLDMGWYRQAPGKEREFVATIGSGSSTYYADSVKGSFTISRDNVKNPVYLQMNSLKPEDTAVYYCAVSAAEQSRHYYWDQGTQVTVSS	low polyreactivity
QVQLQESGGGQVQAGGSLRLSCAASGTIFLYAFMGWYRQAPGKERELVAAIDVGTTTNYADSVKGRFTISRDNAKNTVYLQMNSLKPEDTAVYYCAAPYVSWDYRYYYWGQGTQVTVSS	low polyreactivity
QVQLQESGGLVQAGGLRLSSAASGSVSYQEAMGWYRQAPGKERELVATISFGANTNYADSVKGRFTISRDNAKNTVYLQMNSLKPEDTAVYYCAAESLFDDYYGYWGQGTQVTVSS	low polyreactivity
QVQLQESGGLVQAGGMRLSCEASGSVSYQEAMGWYRQAPGKERELVATISFGANTNYADIVKGRFTISRDNAKNTVYLQMNSLKPEDTAVYYCAAESLFDDYYGYWGQGTQVTVSS	low polyreactivity
QVQLQESGGRLVQAGVSLRLSCAASGSIYDDTYMGWYRQAPGKERELVATIDSGSTTNYADSVKGRITISRDNAKNTVYLQMNSLKPEDTAVYYCAAADSHIDYFDYWGQGTQVTVSS	low polyreactivity
